In one series the target is T1, ARRASAA.
T1 chain: ARRASAA

For the next series, the target named is T2, AKAASAA.
T2 chain: AKAASAA

The target of another series is T3, ARKASAA.
T3 chain: ARKASAA

For the next series, the target named is T4, AARASAA.
T4 chain: AARASAA

A further series deals with T5, AAAASKR.
T5 chain: AAAASKR

Another series addresses T6, AKRASPA.
T6 chain: AKRASPA

A further series addresses T7, KKRASAA.
T7 chain: KKRASAA

The next series has as its target T8, AKRASEA.
T8 chain: AKRASEA

A further series has as its target T9, AKRPSAA.
T9 chain: AKRPSAA

The next series concerns the target T10, RKKKSAA.
T10 chain: RKKKSAA

For a further series, the target named is T11, EKRASAA.
T11 chain: EKRASAA

A further series deals with T12, PKRASAA.
T12 chain: PKRASAA

A further series addresses T13, AKRESAA.
T13 chain: AKRESAA

A further series deals with T14, AAKKSAA.
T14 chain: AAKKSAA

The target of another series is T15, AAKRSAA.
T15 chain: AAKRSAA

In a further series the target is T16, AKRASAA.
T16 chain: AKRASAA

The next series addresses T17, AKRKSAA.
T17 chain: AKRKSAA

For another series, the target named is T18, KKRKSAA.
T18 chain: KKRKSAA

Another series deals with T19, KKAASAA.
T19 chain: KKAASAA

B1: γ-PAK activated by autophosphorylation in the presence of Cdc42(GTPγS) (protein)
chain: SDNGELEDKPPAPPVRMSSTIFSTGGKDPLSANHSLKPLPSVPEEKKPRNKIISIFSGTEKGSKKKEKERPEISPPSDFEHTIHVGFDAVTGEFTGMPEQWARLLQTSNITKLEQKKNPQAVLDVLKFYDSNTVKQKYLSFTPPEKDGFPSGAPALNTKVSETSAVVTEEDDDDEEAAPPVIAPRPDHTKSIYTRSVIDPIPAPVGDSHVDSGAKSSDKQKKKTKMTDEEIMEKLRTIVSIGDPKKKYTRYEKIGQGASGTVFTATDVALGQEVAIKQINLQKQPKKELIINEILVMKELKNPNIVNFLDSYLVGDELFVVMEYLAGGSLTDVVTETCMDEAQIAAVCRECLQALEFLHANQVIHRDIKSDNVLLGMEGSVKLTDFGFCAQITPEQSKRSTMVGTPYWMAPEVVTRKAYGPKVDIWSLGIMAIEMVEGEPPYLNENPLRALYLIATNGTPELQNPEKLSPIFRDFLNRCLEMDVEKRGSAKELLQHPFLKLAKPLSSLTPLIMAAKEAMKSNR
With B1, the rel rate (%), Cdc42-activated (KKRKSAA = 100) was 134% with ARRASAA; 3% in the series with AKAASAA; 9% in the series with ARKASAA; 56% in the series with AARASAA; 0% with AAAASKR; 3% in the series with AKRASPA. In addition, the rel rate (%), Cdc42-activated (KKRKSAA = 100) with KKRASAA is 181%; in the series with AKRASEA, 88%; in the series with AKRPSAA, 11%; with RKKKSAA it was 3%; with EKRASAA it was 151%; with PKRASAA, 184%. The rel rate (%), Cdc42-activated (KKRKSAA = 100) was found to be 295% with AKRESAA; 0% in the series with AAKKSAA; 0% with AAKRSAA; 189% with AKRASAA; 158% in the series with AKRKSAA; 100% in the series with KKRKSAA. In addition, the rel rate (%), Cdc42-activated (KKRKSAA = 100) in the series with KKAASAA was 3%.

B2: Inactive γ-PAK (protein)
chain: B1 chain
Regarding B2, the “activity relative to the activated forms” value in the series with all peptides is <5% of the activity of the activated forms with all peptides.

Values taken from US20030088057.
